In the supplement of paper PMC9112550, “Optimization of the antimicrobial peptide Bac7 by deep mutational scanning” (BMC Biology, 2022):
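Note: peptides expressed intracellularly from a pBAD plasmid library in pooled LB shake-flask culture, induced with 0.3% L-arabinose, DNA abundance read by NGS, three biological replicates, DESeq2 with apeglm shrinkage.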

The sequences below were run on Escherichia coli TOP10 (assay: shrunken log2 fold change of peptide-encoding DNA abundance (4.5 h post-induction vs induction); higher = less antimicrobial activity (less host growth inhibition)). Details: time post-induction: 4.5 h; library: site-saturation at positions 5, 18, 19, 20.
With RRIRVRPPRLPRPRPRPQDSPRP the “shrunken log2 fold change” value was -0.069.
For RRIRGRPPRLPRPRPRPVCRPRP, the “shrunken log2 fold change” value was 0.802.
RRIRMRPPRLPRPRPRPRIMPRP was tested, and the “shrunken log2 fold change” value was 0.049.
With RRIRWRPPRLPRPRPRPTNCPRP the “shrunken log2 fold change” value was -0.0666.
RRIRMRPPRLPRPRPRPPYNPRP was tested, and the “shrunken log2 fold change” value was -0.575.
In the case of RRIRSRPPRLPRPRPRPVSGPRP, the “shrunken log2 fold change” value was 0.00238.
In the case of RRIRHRPPRLPRPRPRPYRNPRP, the “shrunken log2 fold change” value was -0.191.
RRIRTRPPRLPRPRPRPIEGPRP was tested, and the “shrunken log2 fold change” value was -0.0197.
With RRIRTRPPRLPRPRPRPWPLPRP the “shrunken log2 fold change” value was 0.0506.
For RRIRYRPPRLPRPRPRPMCGPRP, the “shrunken log2 fold change” value was -0.17.
RRIRQRPPRLPRPRPRPRDIPRP was tested, and the “shrunken log2 fold change” value was 0.0657.
RRIRYRPPRLPRPRPRPVCEPRP was tested, and the “shrunken log2 fold change” value was 0.0427.
In the case of RRIRQRPPRLPRPRPRPHIMPRP, the “shrunken log2 fold change” value was -0.669.
For RRIRKRPPRLPRPRPRPVFSPRP, the “shrunken log2 fold change” value was 0.111.
RRIRKRPPRLPRPRPRPVDQPRP was tested, and the “shrunken log2 fold change” value was 0.766.
In the case of RRIRIRPPRLPRPRPRPTSDPRP, the “shrunken log2 fold change” value was -0.245.
With RRIRKRPPRLPRPRPRPSDQPRP the “shrunken log2 fold change” value was 0.0938.
RRIRTRPPRLPRPRPRPFKFPRP was tested, and the “shrunken log2 fold change” value was -0.0637.
In the case of RRIRRRPPRLPRPRPRPGFKPRP, the “shrunken log2 fold change” value was 0.0975.
RRIRGRPPRLPRPRPRPYGIPRP was tested, and the “shrunken log2 fold change” value was -0.165.
With RRIRHRPPRLPRPRPRPWELPRP the “shrunken log2 fold change” value was -0.0835.
With RRIRTRPPRLPRPRPRPAIEPRP the “shrunken log2 fold change” value was 0.0358.
RRIRMRPPRLPRPRPRPVREPRP was tested, and the “shrunken log2 fold change” value was 1.19.
RRIRRRPPRLPRPRPRPVCKPRP was tested, and the “shrunken log2 fold change” value was -0.012.
With RRIRERPPRLPRPRPRPMNQPRP the “shrunken log2 fold change” value was -0.67.
For RRIRMRPPRLPRPRPRPVPFPRP, the “shrunken log2 fold change” value was 0.179.
RRIRFRPPRLPRPRPRPQRVPRP was tested, and the “shrunken log2 fold change” value was 0.045.
With RRIRSRPPRLPRPRPRPGHPPRP the “shrunken log2 fold change” value was 0.0456.
For RRIRARPPRLPRPRPRPCAQPRP, the “shrunken log2 fold change” value was 0.483.
RRIRPRPPRLPRPRPRPCMIPRP was tested, and the “shrunken log2 fold change” value was -0.692.
In the case of RRIRLRPPRLPRPRPRPRWPPRP, the “shrunken log2 fold change” value was 0.716.
With RRIRYRPPRLPRPRPRPHDNPRP the “shrunken log2 fold change” value was -1.04.
RRIRWRPPRLPRPRPRPRADPRP was tested, and the “shrunken log2 fold change” value was 0.667.
With RRIRIRPPRLPRPRPRPQFFPRP the “shrunken log2 fold change” value was -0.304.
With RRIRERPPRLPRPRPRPWIYPRP the “shrunken log2 fold change” value was 0.013.
With RRIRIRPPRLPRPRPRPSHKPRP the “shrunken log2 fold change” value was -0.671.
With RRIRKRPPRLPRPRPRPHKPPRP the “shrunken log2 fold change” value was -0.0045.
With RRIRPRPPRLPRPRPRPPHWPRP the “shrunken log2 fold change” value was 0.865.
RRIRQRPPRLPRPRPRPLYPPRP was tested, and the “shrunken log2 fold change” value was -0.228.
In the case of RRIRIRPPRLPRPRPRPKDGPRP, the “shrunken log2 fold change” value was -0.105.
RRIRKRPPRLPRPRPRPKQQPRP was tested, and the “shrunken log2 fold change” value was 0.0737.
In the case of RRIRNRPPRLPRPRPRPNIFPRP, the “shrunken log2 fold change” value was -0.29.
In the case of RRIRNRPPRLPRPRPRPMSPPRP, the “shrunken log2 fold change” value was -0.000685.
For RRIRQRPPRLPRPRPRPGDIPRP, the “shrunken log2 fold change” value was -0.0112.
For RRIRNRPPRLPRPRPRPHCNPRP, the “shrunken log2 fold change” value was -0.196.
With RRIRYRPPRLPRPRPRPQEFPRP the “shrunken log2 fold change” value was -0.00973.
In the case of RRIRRRPPRLPRPRPRPLGSPRP, the “shrunken log2 fold change” value was 0.0898.
With RRIRLRPPRLPRPRPRPCNYPRP the “shrunken log2 fold change” value was -0.593.
RRIRDRPPRLPRPRPRPHYAPRP was tested, and the “shrunken log2 fold change” value was -0.00151.
In the case of RRIRRRPPRLPRPRPRPAERPRP, the “shrunken log2 fold change” value was 0.606.
RRIRGRPPRLPRPRPRPEDKPRP was tested, and the “shrunken log2 fold change” value was 1.23.
For RRIRQRPPRLPRPRPRPRPKPRP, the “shrunken log2 fold change” value was 0.936.
In the case of RRIRARPPRLPRPRPRPAGFPRP, the “shrunken log2 fold change” value was 0.365.
In the case of RRIRLRPPRLPRPRPRPINNPRP, the “shrunken log2 fold change” value was -0.705.
RRIRNRPPRLPRPRPRPHYQPRP was tested, and the “shrunken log2 fold change” value was -0.568.
With RRIRVRPPRLPRPRPRPKSHPRP the “shrunken log2 fold change” value was 1.35.
In the case of RRIRWRPPRLPRPRPRPHELPRP, the “shrunken log2 fold change” value was -0.0349.
For RRIRYRPPRLPRPRPRPSFLPRP, the “shrunken log2 fold change” value was -0.994.
RRIRNRPPRLPRPRPRPFQQPRP was tested, and the “shrunken log2 fold change” value was -0.00931.
With RRIRIRPPRLPRPRPRPHAAPRP the “shrunken log2 fold change” value was -0.298.
For RRIRHRPPRLPRPRPRPWEAPRP, the “shrunken log2 fold change” value was -0.0553.
With RRIRHRPPRLPRPRPRPFEPPRP the “shrunken log2 fold change” value was 0.00846.
With RRIRERPPRLPRPRPRPEMRPRP the “shrunken log2 fold change” value was 0.151.
RRIRFRPPRLPRPRPRPNIWPRP was tested, and the “shrunken log2 fold change” value was -0.224.
With RRIRHRPPRLPRPRPRPAGGPRP the “shrunken log2 fold change” value was -0.131.
With RRIRKRPPRLPRPRPRPMRIPRP the “shrunken log2 fold change” value was 0.34.
In the case of RRIRIRPPRLPRPRPRPKHYPRP, the “shrunken log2 fold change” value was -0.44.
With RRIRARPPRLPRPRPRPHFYPRP the “shrunken log2 fold change” value was 0.107.
With RRIRRRPPRLPRPRPRPTNAPRP the “shrunken log2 fold change” value was 0.158.
In the case of RRIRSRPPRLPRPRPRPRADPRP, the “shrunken log2 fold change” value was 0.387.
RRIRPRPPRLPRPRPRPESTPRP was tested, and the “shrunken log2 fold change” value was 0.118.
With RRIRFRPPRLPRPRPRPWIIPRP the “shrunken log2 fold change” value was -0.00565.
With RRIRDRPPRLPRPRPRPFTWPRP the “shrunken log2 fold change” value was -0.12.
With RRIRRRPPRLPRPRPRPKLRPRP the “shrunken log2 fold change” value was 1.25.
With RRIRQRPPRLPRPRPRPAAGPRP the “shrunken log2 fold change” value was 0.0657.
In the case of RRIRVRPPRLPRPRPRPYSMPRP, the “shrunken log2 fold change” value was -0.692.
In the case of RRIRPRPPRLPRPRPRPDQAPRP, the “shrunken log2 fold change” value was -0.0505.
With RRIRQRPPRLPRPRPRPLYRPRP the “shrunken log2 fold change” value was 0.0401.
With RRIRQRPPRLPRPRPRPKIYPRP the “shrunken log2 fold change” value was -0.277.
RRIRCRPPRLPRPRPRPDSCPRP was tested, and the “shrunken log2 fold change” value was 0.0373.
With RRIRLRPPRLPRPRPRPARLPRP the “shrunken log2 fold change” value was 0.647.
In the case of RRIRERPPRLPRPRPRPKHEPRP, the “shrunken log2 fold change” value was -0.205.
For RRIRMRPPRLPRPRPRPDGNPRP, the “shrunken log2 fold change” value was 0.0626.
With RRIRARPPRLPRPRPRPQSVPRP the “shrunken log2 fold change” value was -0.037.
For RRIRLRPPRLPRPRPRPVQGPRP, the “shrunken log2 fold change” value was -0.01.
For RRIRQRPPRLPRPRPRPGFPPRP, the “shrunken log2 fold change” value was -0.0539.
For RRIRPRPPRLPRPRPRPGYAPRP, the “shrunken log2 fold change” value was 0.177.
For RRIRVRPPRLPRPRPRPCYVPRP, the “shrunken log2 fold change” value was -0.0957.
RRIRTRPPRLPRPRPRPRYLPRP was tested, and the “shrunken log2 fold change” value was -0.131.
With RRIRIRPPRLPRPRPRPPVGPRP the “shrunken log2 fold change” value was 0.59.
For RRIRSRPPRLPRPRPRPPNDPRP, the “shrunken log2 fold change” value was -0.0183.
In the case of RRIRNRPPRLPRPRPRPQKNPRP, the “shrunken log2 fold change” value was -0.318.
With RRIRERPPRLPRPRPRPRNMPRP the “shrunken log2 fold change” value was -0.228.
For RRIRIRPPRLPRPRPRPRENPRP, the “shrunken log2 fold change” value was 0.0178.
With RRIRARPPRLPRPRPRPTVVPRP the “shrunken log2 fold change” value was 0.238.
With RRIRHRPPRLPRPRPRPNWHPRP the “shrunken log2 fold change” value was -0.242.
RRIRGRPPRLPRPRPRPDIRPRP was tested, and the “shrunken log2 fold change” value was 0.454.
With RRIRWRPPRLPRPRPRPNQEPRP the “shrunken log2 fold change” value was -0.119.
In the case of RRIRHRPPRLPRPRPRPCGEPRP, the “shrunken log2 fold change” value was -0.0851.
For RRIRVRPPRLPRPRPRPPSYPRP, the “shrunken log2 fold change” value was 0.00807.
In the case of RRIRQRPPRLPRPRPRPEYQPRP, the “shrunken log2 fold change” value was 0.00438.
In the case of RRIRGRPPRLPRPRPRPGTYPRP, the “shrunken log2 fold change” value was -0.201.
With RRIRWRPPRLPRPRPRPWAYPRP the “shrunken log2 fold change” value was -0.502.
With RRIRMRPPRLPRPRPRPFFWPRP the “shrunken log2 fold change” value was 0.593.
With RRIRERPPRLPRPRPRPPVGPRP the “shrunken log2 fold change” value was 0.0345.
With RRIRDRPPRLPRPRPRPDAPPRP the “shrunken log2 fold change” value was 0.788.
With RRIRWRPPRLPRPRPRPHDRPRP the “shrunken log2 fold change” value was 0.00489.
For RRIRRRPPRLPRPRPRPCRMPRP, the “shrunken log2 fold change” value was 0.0963.
RRIRLRPPRLPRPRPRPQHPPRP was tested, and the “shrunken log2 fold change” value was -0.132.
